# Source: paper PMC5694551, “Kir2.1-Nav1.5 Channel Complexes Are Differently Regulated than Kir2.1 and Nav1.5 Channels Alone” (Frontiers in Physiology, 2017)
# Target: T1, Nav1.5 channels of rat ventricular myocytes (rat (endogenous in ventricular myocytes), UniProt P15389 1-2019)
# T1 construct: Nav1.5 sodium channel alpha subunit, endogenous at the membrane of Sprague-Dawley rat ventricular myocytes; source: endogenous, isolated rat ventricular myocytes (fixed, non-permeabilized)
# Experiment: proximity ligation; Duolink PLA in fixed, non-permeabilized rat ventricular myocytes; primary antibodies against extracellular domains of Nav1.5 and Kir2.1; buffers without detergents; confocal microscopy; negative control without primary antibodies
# Conditions: partners not purified
# T1 sequence (P15389 whole entry): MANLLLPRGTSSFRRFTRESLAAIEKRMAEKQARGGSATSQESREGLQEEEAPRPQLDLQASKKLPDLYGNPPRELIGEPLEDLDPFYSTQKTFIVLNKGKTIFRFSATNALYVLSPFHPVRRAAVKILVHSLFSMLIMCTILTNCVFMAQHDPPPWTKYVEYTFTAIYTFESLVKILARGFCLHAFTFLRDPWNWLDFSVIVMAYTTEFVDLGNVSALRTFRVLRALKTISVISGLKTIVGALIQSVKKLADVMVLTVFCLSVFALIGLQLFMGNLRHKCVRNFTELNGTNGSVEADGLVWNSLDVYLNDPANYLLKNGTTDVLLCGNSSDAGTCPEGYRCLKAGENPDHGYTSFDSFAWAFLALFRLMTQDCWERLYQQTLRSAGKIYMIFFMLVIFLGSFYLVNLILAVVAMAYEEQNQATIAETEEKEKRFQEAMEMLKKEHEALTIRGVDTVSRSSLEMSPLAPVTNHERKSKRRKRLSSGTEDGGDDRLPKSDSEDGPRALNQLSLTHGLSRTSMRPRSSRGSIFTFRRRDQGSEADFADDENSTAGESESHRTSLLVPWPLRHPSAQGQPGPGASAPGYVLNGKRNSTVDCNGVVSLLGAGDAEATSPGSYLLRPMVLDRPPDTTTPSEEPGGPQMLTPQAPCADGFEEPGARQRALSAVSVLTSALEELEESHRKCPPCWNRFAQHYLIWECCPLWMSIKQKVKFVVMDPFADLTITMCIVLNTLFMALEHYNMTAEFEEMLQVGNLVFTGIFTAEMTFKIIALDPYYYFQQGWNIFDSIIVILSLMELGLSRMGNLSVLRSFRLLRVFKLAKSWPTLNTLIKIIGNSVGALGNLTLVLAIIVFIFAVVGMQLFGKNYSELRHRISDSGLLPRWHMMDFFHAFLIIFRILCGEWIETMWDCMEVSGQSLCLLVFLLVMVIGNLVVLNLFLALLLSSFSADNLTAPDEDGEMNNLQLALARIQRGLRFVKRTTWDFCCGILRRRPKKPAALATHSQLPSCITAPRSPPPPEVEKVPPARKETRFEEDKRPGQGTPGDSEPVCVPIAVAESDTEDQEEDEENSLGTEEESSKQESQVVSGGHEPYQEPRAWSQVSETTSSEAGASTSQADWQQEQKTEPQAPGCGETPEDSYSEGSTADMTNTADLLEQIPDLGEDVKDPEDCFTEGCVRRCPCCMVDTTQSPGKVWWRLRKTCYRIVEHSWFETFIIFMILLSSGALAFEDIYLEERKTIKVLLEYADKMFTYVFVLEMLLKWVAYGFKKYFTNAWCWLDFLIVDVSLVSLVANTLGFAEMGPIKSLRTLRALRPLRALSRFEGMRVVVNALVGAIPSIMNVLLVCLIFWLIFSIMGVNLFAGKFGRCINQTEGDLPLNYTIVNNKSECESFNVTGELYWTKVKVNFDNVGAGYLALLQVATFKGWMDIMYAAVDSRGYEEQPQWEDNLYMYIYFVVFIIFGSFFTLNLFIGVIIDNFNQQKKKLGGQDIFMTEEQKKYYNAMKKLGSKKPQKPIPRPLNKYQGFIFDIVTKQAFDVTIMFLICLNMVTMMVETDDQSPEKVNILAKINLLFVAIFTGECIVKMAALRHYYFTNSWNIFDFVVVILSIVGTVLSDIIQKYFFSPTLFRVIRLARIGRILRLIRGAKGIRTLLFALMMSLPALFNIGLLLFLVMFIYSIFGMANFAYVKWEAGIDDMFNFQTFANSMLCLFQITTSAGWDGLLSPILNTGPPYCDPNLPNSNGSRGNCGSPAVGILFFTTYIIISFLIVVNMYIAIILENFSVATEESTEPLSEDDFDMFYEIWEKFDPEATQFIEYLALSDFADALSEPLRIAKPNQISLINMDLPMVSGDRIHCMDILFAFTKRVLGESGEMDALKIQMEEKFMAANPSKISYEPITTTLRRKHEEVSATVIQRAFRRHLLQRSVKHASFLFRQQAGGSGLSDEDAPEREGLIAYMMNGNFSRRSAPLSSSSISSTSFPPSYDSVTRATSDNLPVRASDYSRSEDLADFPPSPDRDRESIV
binder,measurement,value
"Kir2.1 channels of rat ventricular myocytes (natural protein, rat (endogenous in ventricular myocytes), UniProt Q64273 1-427, looked up, Kir2.1 inward rectifier K+ channel, endogenous at the membrane of Sprague-Dawley rat ventricular myocytes; source: endogenous, isolated rat ventricular myocytes (fixed, non-permeabilized)) MGSVRTNRYSIVSSEEDGMKLATMAVANGFGNGKSKVHTRQQCRSRFVKKDGHCNVQFINVGEKGQRYLADIFTTCVDIRWRWMLVIFCLAFVLSWLFFGCVFWLIALLHGDLDASKESKACVSEVNSFTAAFLFSIETQTTIGYGFRCVTDECPIAVFMVVFQSIVGCIIDAFIIGAVMAKMAKPKKRNETLVFSHNAVIAMRDGKLCLMWRVGNLRKSHLVEAHVRAQLLKSRITSEGEYIPLDQIDINVGFDSGIDRIFLVSPITIVHEIDEDSPLYDLSKQDIDNADFEIVVILEGMVEATAMTTQCRSSYLANEILWGHRYEPVLFEEKHCYKVDYSRFHKTYEVPNTPLCSARDLAEKKYILSNANSFCYENEVALTSKEEEDSENGVPESTSTDSPPGIDLHNQASVPLEPRPLRRESEI",fold increase of the PLA fluorescence signal over the negative control (no primary antibodies),~6.5 fold
